According to paper PMC10786891, “Massively parallel profiling of RNA-targeting CRISPR-Cas13d”:
Where a chain is given by its changes, count along the chain named. In names and notes the source's numbering stands.

B1: target 3 A5G,C6A (mixed)
RNA 1: CACCCGUGCAAAAUUGCAGGGGUCUAAAACGACCUGAAUAUUUCAGAUCAAA
RNA 2: GGGAAUGGAUCCACAUCUACGAAUUCGUUUUUGAUCUGAAAUAUUAGGGUCUGCAGAUCGGAAGAGCACACGU
B2: target 3 A5G,U22C (mixed)
RNA 1: B1 RNA 1
RNA 2: B1 RNA 2 with U30C, A46C
B3: target 3 A13G (mixed)
RNA 1: B1 RNA 1
RNA 2: B1 RNA 2 with A39G, A46C, G47A
B4: target 3 insU 3' of 11,insG 3' of 2 (mixed)
RNA 1: B1 RNA 1
RNA 2: GGGAAUGGAUCCACAUCUACGAAUUCGUUUUUGAUCUGAAAUUAUUCAGGUGCUGCAGAUCGGAAGAGCACACGU
B5: target 3 G4A,A13G (mixed)
RNA 1: B1 RNA 1
RNA 2: B1 RNA 2 with A39G, A46C, G47A, G48A
B6: target 3 G4A,A5U (mixed)
RNA 1: B1 RNA 1
RNA 2: B1 RNA 2 with A46C, G47U, G48A
B7: target 3 C1A,U22G (mixed)
RNA 1: B1 RNA 1
RNA 2: B1 RNA 2 with U30G, A46C, G47A, C51A
B8: target 3 insG 3' of 9,insA 3' of 6 (mixed)
RNA 1: B1 RNA 1
RNA 2: B4 RNA 2 with U43A, A44G, G49A, U51G, G52U
B9: target 3 C6U,U7G (mixed)
RNA 1: B1 RNA 1
RNA 2: B1 RNA 2 with U45G, A46U, G47A
B10: target 3 G3C,A5C (mixed)
RNA 1: B1 RNA 1
RNA 2: B1 RNA 2 with A46C, G47C, G49C
B11: target 3 U22G (mixed)
RNA 1: B1 RNA 1
RNA 2: B1 RNA 2 with U30G, A46C, G47A
B12: target 3 insA 3' of 3,insA 3' of 2 (mixed)
RNA 1: B1 RNA 1
RNA 2: B4 RNA 2 with U43A, A44U, U46C, C47A, A48G, G50A, G52A
B13: target 3 insC 3' of 21,insU 3' of 4 (mixed)
RNA 1: B1 RNA 1
RNA 2: GGGAAUGGAUCCACAUCUACGAAUUCGUUUUCUGAUCUGAAAUAUUCAGUGUCUGCAGAUCGGAAGAGCACACGU
B14: target 3 insU 3' of 3,insU 3' of 3 (mixed)
RNA 1: B1 RNA 1
RNA 2: B4 RNA 2 with U43A, A44U, U46C, C47A, A48G, G50U, G52U
B15: target 3 insC 3' of 22,insC 3' of 5 (mixed)
RNA 1: B1 RNA 1
RNA 2: B13 RNA 2 with U31C, C32U, G49C, U50G
B16: target 3 U2G,A9U (mixed)
RNA 1: B1 RNA 1
RNA 2: B1 RNA 2 with A43U, A46C, G47A, U50G
B17: target 3 U2A,A9G (mixed)
RNA 1: B1 RNA 1
RNA 2: B1 RNA 2 with A43G, A46C, G47A, U50A
B18: target 3 insA 3' of 10,insA 3' of 6 (mixed)
RNA 1: B1 RNA 1
RNA 2: B4 RNA 2 with U43A, G49A, U51G, G52U
B19: target 3 insC 3' of 3,insU 3' of 3 (mixed)
RNA 1: B1 RNA 1
RNA 2: B4 RNA 2 with U43A, A44U, U46C, C47A, A48G, G50C, G52U
B20: target 3 U2G (mixed)
RNA 1: B1 RNA 1
RNA 2: B1 RNA 2 with A46C, G47A, U50G
B21: target 3 insG 3' of 5,insU 3' of 3 (mixed)
RNA 1: B1 RNA 1
RNA 2: B4 RNA 2 with U43A, A44U, U46C, C47A, A48G, G52U
B22: target 3 insG 3' of 7,insA 3' of 6 (mixed)
RNA 1: B1 RNA 1
RNA 2: B4 RNA 2 with U43A, A44U, U46G, G49A, U51G, G52U
B23: target 3 insU 3' of 3 (mixed)
RNA 1: B1 RNA 1
RNA 2: GGGAAUGGAUCCACAUCUACGAAUUCGUUUUUGAUCUGAAAUAUUCAGGUUCUGCAGAUCGGAAGAGCACACGU
B24: target 3 insG 3' of 7,insU 3' of 5 (mixed)
RNA 1: B1 RNA 1
RNA 2: B4 RNA 2 with U43A, A44U, U46G, G49U, U51G, G52U
B25: target 3 insG 3' of 9,insG 3' of 7 (mixed)
RNA 1: B1 RNA 1
RNA 2: B4 RNA 2 with U43A, A44G, C47G, A48C, G49A, U51G, G52U
B26: target 3 insA 3' of 7,insG 3' of 6 (mixed)
RNA 1: B1 RNA 1
RNA 2: B4 RNA 2 with U43A, A44U, U46A, A48G, G49A, U51G, G52U
B27: target 1 insC 3' of 9,insU 3' of 6 (mixed)
RNA 1: CACCCGUGCAAAAAUGCAGGGGUCUAAAACUGAGCGGAUAACCUCUCUAUGG
RNA 2: GGGAAUGGAUCCACAUCUACGAAUUCGUACCAUAGAGAGGUUACUCCUGCUCACCGAGAUCGGAAGAGCACACGU
B28: target 1 A1G,U3A (mixed)
RNA 1: B27 RNA 1
RNA 2: GGGAAUGGAUCCACAUCUACGAAUUCGUACCAUAGAGAGGUUAUCCGCACGCCGAGAUCGGAAGAGCACACGU
B29: target 1 insA 3' of 5,insU 3' of 1 (mixed)
RNA 1: B27 RNA 1
RNA 2: B27 RNA 2 with C44U, U45C, C47G, U48A, G49C, C50U, U51C, C52A, A53U

Target: T1, EsCas13d, nuclease-dead (Eubacterium siraeum, UniProt B0MS50, R295A;H300A;R849A;H854A)
T1 sequence: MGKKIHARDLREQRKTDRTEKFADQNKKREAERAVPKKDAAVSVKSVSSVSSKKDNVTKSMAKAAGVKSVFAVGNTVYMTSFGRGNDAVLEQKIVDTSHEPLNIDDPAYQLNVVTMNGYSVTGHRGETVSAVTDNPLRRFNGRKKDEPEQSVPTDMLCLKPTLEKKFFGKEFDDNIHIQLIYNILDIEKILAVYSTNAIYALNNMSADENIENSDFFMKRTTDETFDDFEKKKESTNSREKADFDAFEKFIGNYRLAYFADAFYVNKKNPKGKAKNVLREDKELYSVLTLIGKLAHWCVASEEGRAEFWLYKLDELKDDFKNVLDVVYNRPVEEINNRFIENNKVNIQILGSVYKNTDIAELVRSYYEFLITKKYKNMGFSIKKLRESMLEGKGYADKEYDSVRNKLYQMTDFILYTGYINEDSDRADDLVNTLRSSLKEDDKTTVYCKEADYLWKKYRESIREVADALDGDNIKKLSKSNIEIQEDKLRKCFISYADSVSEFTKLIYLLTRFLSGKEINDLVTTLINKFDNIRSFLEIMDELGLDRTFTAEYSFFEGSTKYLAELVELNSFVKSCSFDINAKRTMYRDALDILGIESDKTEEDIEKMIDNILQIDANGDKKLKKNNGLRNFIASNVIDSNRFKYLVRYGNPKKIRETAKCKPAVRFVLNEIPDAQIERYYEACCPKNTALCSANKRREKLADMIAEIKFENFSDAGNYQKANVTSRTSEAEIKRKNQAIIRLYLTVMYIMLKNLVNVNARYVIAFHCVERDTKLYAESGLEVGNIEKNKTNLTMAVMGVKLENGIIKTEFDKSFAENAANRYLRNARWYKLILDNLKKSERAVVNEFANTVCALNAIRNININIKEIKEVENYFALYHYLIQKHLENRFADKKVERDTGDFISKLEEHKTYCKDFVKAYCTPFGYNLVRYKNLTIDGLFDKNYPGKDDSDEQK
Test: crRNA (strand 1, pre-loaded); Mg2+; 40 mM Tris-HCl pH 7.5, 150 mM NaCl, 6 mM MgCl2, 1 mM DTT, 0.1% Tween-20, 0.2 mg/ml BSA; 25 C; 10 min per concentration, then washed
Conditions: tags: His6-TwinStrep-SUMO cleaved; N-terminal SNAP kept (SNAP-Surface 488); label: 3' end held by stalled T7 RNA polymerase

Binder	Kd
B1	34.1 ± 3.35 nM
B2	23.4 ± 3.5 nM
B3	69 ± 20 nM
B4	42.5 ± 6 nM
B5	112 ± 35 nM
B6	19.3 ± 2.25 nM
B7	~87 nM
B8	90.5 ± 16 nM
B9	39 ± 6 nM
B10	96.5 ± 15.5 nM
B11	61 ± 13 nM
B12	26.5 ± 6 nM
B13	~68.5 nM
B14	81 ± 20 nM
B15	32 ± 4.5 nM
B16	123 ± 29 nM
B17	47 ± 6 nM
B18	71 ± 8.5 nM
B19	17.9 ± 2.1 nM
B20	26.5 ± 2.7 nM
B21	30 ± 4.5 nM
B22	29.3 ± 3.75 nM
B23	29.2 ± 3.4 nM
B24	19.9 ± 2.2 nM
B25	63 ± 7 nM
B26	21.1 ± 1.4 nM
B27	16.6 ± 0.9 nM
B28	6.8 ± 0.6 nM
B29	9.5 ± 1 nM
